Data from patent publication US20090149377, “METHODS FOR REGULATION OF p53 TRANSLATION AND FUNCTION” (ST. JUDE CHILDREN'S RESEARCH HOSPITAL, published 2009).

Target: RPL26 (Homo sapiens, UniProt P61254 SEQ:1-145)
Assay: EMSA; supershift with anti-penta His; 1.5 mM Mg acetate, 90 mM K acetate, 30 C

B1: p53 5'UTR (-191 to 2) (ssRNA)
RNA: GGUUUUCCCCUCCCAUGUGCUCAAGACUGGCGCUAAAAGUUUUGAGCUUCUCAAAAGUCUAGAGCCACCGUCCAGGGAGCAGGUAGCUGCUGGGCUCCGGGGACACUUUGCGUUCGGGCUGGGAGCGUGCUUUCCACGACGGUGACACGCUUCCCUGGAUUGGCAGCCAGACUGCCUUCCGGGUCACUGCCAU
binding result: binds
